test: soluble on expression in E. coli; label from the status in PepcDB or PDB records

Sequence	soluble on expression in E. coli
MSKENIVTRENTAVSENAVSEPTVNNDVGASATNSVTHPAFTLNVRPDNIGIITIDVVGDKVNTLKAEFADQIATILQQAHALPKLQGLVIVSGKPDSFIAGADITMIAACRTAHDARVLAQKGQSILAQIAAFPVPVVAAIHGACLGGGLELALACHSRICSLDDKTVLGLPEVQLGLLPGSGGTQRLPRLVGVSKALDMILTGKQIRPRQALKMGLVDDVVPRDILLDVAIQRAKAGWLNRRALPWQERLLSGPLGKALLFRIVRKKTLAKTRGHYPAAERIIDVVRKGLDQGGPSGYEAEARAFGELAMSPQSAALRSLFFATTSLKKETGSAATARAIHRVGVLGGGLMGGGIANVTATRAGLPVRIKDINPQGINQALKYTWDALGKRVRSKRMRPTEQQRQMMLISGSTDYRGFERVDIVVEAVFEDLSLKQQMVADIERFGAAHTIFASNTSSLPISQIAALAQRPEQVIGLHYFSPVDKMPLVEVIPHEKTSEETIATTVALARKQGKTAIVVADRAGFYVNRILAPYINEAARCLLDGEPIESVDNALVDFGFPVGPMMLLDEVGIDVATKIMPILVEQLGPRFAAPPSFDVILKDGRKGRKNGRGFYLYSNPTKNSSPTKNGNSPAKRNSFKWRKNKVKPVDASIYTLLGVTPKAHLGAGVITQRCTMLMLNEAVRCLDESIIRNPRDGDIGAVFGIGFPPFLGGPFRYLDSLGADKVVQALRLLVQQYGERFEPCQRLVTMAEQQQQFYPVDANIDEVTDVAS	not soluble
MPLLGLLPRRAWASLLSQLLRPPCASCTGAVRCQSQVAEAVLTSQLKAHQEKPNFIIKTPKGTRDLSPQHMVVREKILDLVISCFKRHGAKGMDTPAFELKETLTEKYGEDSGLMYDLKDQGGELLSLRYDLTVPFARYLAMNKVKKMKRYHVGKVWRRESPTIVQGRYREFCQCDFDIAGQFDPMIPDAECLKIMCEILSGLQLGDFLIKVNDRRIVDGMFAVCGVPESKFRAICSSIDKLDKMAWKDVRHEMVVKKGLAPEVADRIGDYVQCHGGVSLVEQMFQDPRLSQNKQALEGLGDLKLLFEYLTLFGIADKISFDLSLARGLDYYTGVIYEAVLLQTPTQAGEEPLNVGSVAAGGRYDGLVGMFDPKGHKVPCVGLSIGVERIFYIVEQRMKTKGEKVRTTETQVFVATPQKNFLQERLKLIAELWDSGIKAEMLYKNNPKLLTQLHYCESTGIPLVVIIGEQELKEGVIKIRSVASREEVAIKRENFVAEIQKRLSES	soluble
MIGYVLNGEHEEIPYGELMALLEIFNYNGSVERLKRYVITEDSPAKDIVKRSGYIDEGHRIIFRYNLEEKSVDLVDKIVNDFINSFKDFVANIDYPDIDESKSYAVRVLKLHKDEFTKSIDSLRIEKEIGGIIKLKTNAKVNLTKPDILVRVVILENTFFISNVLEMRDREYFQKNRPHLRKYFHPGCMLPKLARAMVNLARVKEGDIVLDPFCGTGGFLIEAGLIGAKLIGCDIDWRMASGTLINLEEYNLLDKVIKVKRLDAKYVKEFLNELNIEKVDAIVTDPPYGISTAKKGEIEKILETLPEVIKDNGYFVFAYPKKIELDMELEGLYKVYIHKGLIRHIHVYKKI	soluble
MSLESSDDAPLPTDVPKDAAEALVCFLTQHVRALMSPHADPVPSCPRCGGTQIHKKGYAPLQTGPLPTYQCEGCDHYFSRLSGTPLSGHRIRRSAEELITMLPQAIGCPEAARRLGVMERTIRNTVRMFRRWVLELDPSGHHERHIRLGGRFTAVRDQAPPVVDEQIAYEDVALTAKLLEDFETIHSNKHFPMPDCPACGADRLVTKGTFSGFARFKCASCGKQFNRRTGTPFTRNRKVYERQRALIRYLGLPLSITQLAEIVGGDHGNVARLIREFRERCDQLDPTGQLSHRIRAGARPAEDTPCIQCGARHVRFDVRGITPGKCAVCGRLISMRRAIIERDGVLEVGPWQWAEQLQQEGHHHHHH	not soluble
MAHHHHHHMATNPDIETDIPRDVYQFFRGLNRAVERRDAAAMHDLYESQFDALTKNYYMAGHGQFRSWPALRLEQVSSCFRGNHMAELVYSFLFYKHLFMDNRSVRAPDAEGAWKTYSELLPMLKSYELPNWMLWDIFDEFLYQMTVVYQKVFVTEGIWAVPEVSRLLNEVIDNSRLLELVKQPDFLEDIHRGPNTGALSGFYAIVTKSKLNVLLGDYYSALTDLEPLDVYNKGRAVLTRVSPCAVSVFYHIGFSYLMIHRFEDASNAFRRCVTVKLNGRRFSERVQQDAAYMYVCARVLGGMPINNLTSYLDSRKVAAFEDDRESLRTGDEERFRDVFDRCSPKFLTVPPSDGSPVKGSEGRELQARMFRRAVQQQQDIIKLRGYFKVYQNTKMNLLETLLEVDDGYAPLFALKMRSRQLVHDGVTADLLQGVFTSSSEFDCIVQDDNVEVVPSMTFGGIEQKLLNKIKNTQRDIEVAKRKFNQTRNRDEGGNKRKDQRDQKRRPNQQQLHGGVGNNAGSANRSSNNVNRHPRQKMAAQPMTSNLFNRNDN	soluble
MSLHNRFSLAQTLVTTVEAESGTRAGGLTIATANAGYSGTGYITNMTSAADKLTIPVTVPSAGNYQLVIRYNGPYGPKDQDIYVNGVFVSSLHFPETTGYTDLTAGSLTLNAGANTIGIYKNWGYTDFDKISLFTVPLHDYSTVAPNLIDANATPEAKALYNYIKAGYGTRIISGQTSDYYNTVSPNAAKKPVIRAYDFQHYTVGYSYLWNNATASHTFGWEDDGTTQAAIDWYNSTCQKGMVAFHWHWHSPSGGQAGTNTFYTNSTAFDVTKAVTQGTPEYTAVIRDIDSIATQLKRLQAAGVPVLWRPLHEAGGAWFWWGAKGPAAALALYDMVYNRIVNYHNIHNLIWQWSTPEANWYPGNSKVDMLGYDSYPGAYNYGTQKLIFDQLYTIVNGQKILAMTENGPIPDPDLCFSSDAKWAYVMSWSDLVTQQNSSAQLNLVYNHAKVLTLDEVTTATNTAQLTAEGHHHHHH	soluble
MTSITPSIQFFAGIFEELSNVSLRREVRTGKRIVMMKFNQLQAIEGFNSFTKQSLNSLLLTDEEGEISVTPSATRFIFGGDEGDELQGVECKFEVERDDHWERFMRFMNRYAEANDMEYGERLEHHHHHH	soluble
MTVVLTLLLLLVLVGCAKPKVEQTVKLGGAVKTIGDLVVLSGNSNLPKGAVVQIVMKEIEGGKQVLEEKVKVGGDGSYSWSAKRPERAKEYELDVMFLPELQPKHVKEKYGEKGELIKKDSSGRVEYQTDGQTYVGIKMYDRILKIGDGMGGQQSMLAETLPPPPPSY	not soluble
MGSLRLLADIQGEDLESLYGYAKQLFDGGEIAAARNVYQLLSTLDHWNFDYLLALGLCHQRLGAHNEAVVCFGRAGLIKVDDPRAAFYAGISYRLDGNAEYASKAFKAAINWCGEQIDYQAIKASAVDMLALQQEEVPLEHHHHHH	not soluble
MSDHAEEHASINTKKTVENITDVRKTAKTSIDWTKPSGGEYPDIKQKHVWIDVNVKEQKAYIKEGSNTIYTMMISSGLDQTKDDATPKGTFYVEPERGEWFFSEGYQEGAEYWVSWKNHGEFLFHSVPMTKDQKVIKTEAEKLGTKVSHGCIRLTIPDAKWVYENIPEHTKVVISLEHHHHHH	not soluble
MGSDKIHHHHHHVPMGKLIASLVDIVKKNKFVDDTQKALFDNFENTKRVNVYIDDLDRGWEGRKEDIRRISALLNAVRDISNEMDNVHFMISLRSDVYYLVRTSDESTDKISGSVIWYTWDRHQILALLAKRVETFFGRDISENSLMGMHQSKIAQYLDPIMTQHFEGKGKWENAPIYRILMSLIRNRPRDLVMICTLAARNARKKGRSKILTEDLQSIFEDYSLERIQDIENEFKSELPEIRRLLFALKPSAKKSSKFSDLYVYTTDQVEAKIQSASANAPFYFSNNNKQATSEELHYFLYKINFLTARRKNKDDVLVRKTFEENKYLTGRFVDFGFGWEVHPAYRWALEPDDSESIYARLDLLDFE	not soluble

From the DeepSol protein solubility set
